Columns and labels:
[1] = molecular target: T1, StrepSumo-tagged Mit1CII I11R (S. pombe, UniProt Q9P793 1-81, I11R); experiment: ITC; 25°C; 400 mM NaCl, 50 mM Tris-HCl pH 7.5, 5 mM β-mercaptoethanol; Chp2 or Swi6 at 100 to 500 µM injected into the cell holding StrepSumo-tagged Mit1 constructs at 5 to 50 µM; VP-ITC or Nano ITC (Mit1CIIΔCDL); conditions: both partners purified
T1 construct: Mit1, S. pombe, CII, residues 1-81, I11R; also called Mit1I11R; Mit1 I11R; source: E. coli BL21(DE3) or Rosetta (DE3), purified (Streptactin, SEC); not shown: Strep-SUMO, N-terminal, kept
T1 sequence (looked up): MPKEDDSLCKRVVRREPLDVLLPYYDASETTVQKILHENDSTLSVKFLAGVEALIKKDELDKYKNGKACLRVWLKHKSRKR

[2] = molecular target: T2, StrepSumo-tagged Mit1CII with engineered PkVvL motif instead of CkIvV (S. pombe, UniProt Q9P793 1-81, PkVvL motif instead of CkIvV); experiment: as above; conditions: both partners purified
T2 construct: Mit1, S. pombe, CII, residues 1-81; residues 9-13 CKIVV changed to PKVVL; also called Mit1 PxVxL substitution mutant; PxVxL substitution; source: E. coli BL21(DE3) or Rosetta (DE3), purified (Streptactin, SEC); not shown: Strep-SUMO, N-terminal, kept
T2 sequence (looked up): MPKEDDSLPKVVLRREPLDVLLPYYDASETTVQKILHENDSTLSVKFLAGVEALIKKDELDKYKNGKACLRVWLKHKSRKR

[3] = molecular target: T3, StrepSumo-tagged Mit1CII wild type (S. pombe, UniProt Q9P793 1-81); experiment: as above; conditions: both partners purified
T3 construct: The Strep-SUMO tag was left on for stabilization; also called wild-type Mit1CII; source: E. coli BL21(DE3) or Rosetta (DE3), purified (Streptactin, SEC); not shown: Strep-SUMO, N-terminal, kept
T3 sequence (looked up): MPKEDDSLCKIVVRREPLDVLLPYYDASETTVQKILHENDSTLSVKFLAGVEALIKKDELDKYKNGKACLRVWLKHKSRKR

[4] = molecular target: StrepSumo-tagged Mit1CIIΔCDL (S. pombe); experiment: as above
[5] = molecular target: the molecule itself; experiment: crystal structure; Mit1(1-81)–Chp2(316-380), coexpressed in E. coli, purified as a complex; hanging drops at 18°C, 2.4 M sodium malonate pH 7, 3% 1,6-hexanediol; 1.6 Å
[6] = molecular target: T4, Mit1(1-81), Chp2 interaction interface (CII), tag removed (S. pombe, UniProt Q9P793 1-81); experiment: as above; conditions: both partners purified
T4 construct: Mit1, S. pombe, residues 1-81 (CkIvV motif 9-13, linker 15-31, CD-like domain); Density is seen for residues 8-81; also called Mit1CII; source: E. coli BL21(DE3) or Rosetta (DE3), coexpressed with Chp2CSD, purified as a complex (Streptactin, Ulp1, SEC); not shown: Strep-SUMO, N-terminal, cleaved
T4 sequence (looked up): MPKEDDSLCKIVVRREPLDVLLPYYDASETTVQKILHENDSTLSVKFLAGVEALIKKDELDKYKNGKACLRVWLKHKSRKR

B1: Chp2CSD (expressed alone, tag removed, for ITC) (domain or fragment, S. pombe)
chain: KPPFQKKSWEDLVDCVKTVQQLDNGKLIAKIKWKNGYVSTHDNIIIHQKCPLKIIEYYEAHIKFT
notes: Chp2, S. pombe, chromoshadow domain (CSD); limits 316-380 are printed for the crystallised CSD construct, not for the ITC sample; source: E. coli BL21(DE3) or Rosetta (DE3), purified (Streptactin, Ulp1, MonoS); not shown: Strep-SUMO, N-terminal, cleaved
[1]
  Kd: 21.5 µM
[2]
  Kd: 0.0082 µM
[3]
  Kd: 0.0026 µM
[4]
  Kd: 2.2 µM

B2: Chp2CSD, Chp2(316-380), untagged, coexpressed with Mit1 fragments (domain or fragment, S. pombe, UniProt O42934 316-380, looked up)
chain: KPPFQKKSWEDLVDCVKTVQQLDNGKLIAKIKWKNGYVSTHDNIIIHQKCPLKIIEYYEAHIKFT
notes: Chp2, S. pombe, chromoshadow domain, residues 316-380; Cloned without tag into pACE2 for coexpression; Limits 316-380 are printed for the crystallised complex; also called chromo shadow domain of Chp2; Chp2CSD2; source: E. coli BL21(DE3) or Rosetta (DE3), coexpressed with Mit1 fragments, purified as a complex
[5]
  stoichiometry N: 2
[6]
  stoichiometry N: 2 Chp2CSD chains per Mit1

B3: Swi6CSD (domain or fragment, S. pombe, UniProt P40381 267-328, looked up)
chain: DSWEDLVSSIDTIERKDDGTLEIYLTWKNGAISHHPSTITNKKCPQKMLQFYESHLTFRENE
notes: Swi6, HP1 protein, S. pombe, chromoshadow domain (CSD); A crystal structure of the free Swi6CSD dimer (PDB 1E0B) is cited; also called Swi6 chromoshadow domain; source: E. coli BL21(DE3) or Rosetta (DE3), purified (Streptactin, on-column Ulp1 cleavage, SEC); not shown: Strep-SUMO, N-terminal, cleaved
[2]
  Kd: 15 µM
[3]
  Kd: 28 µM

Reference: paper PMC6499331, “Transcriptional gene silencing requires dedicated interaction between HP1 protein Chp2 and chromatin remodeler Mit1” (Genes & Development, 2019)
